{"source": "patent US20150216990A1", "about": "(TUFTS MEDICAL CENTER, published 2015)", "binders": {"B1": {"name": "PZ-128 (palmitate-KKSRALF-NH2) (peptide)", "peptide": "Palmitoyl-KKSRALF-NH2", "modifications": "also: acetate salt"}}, "biological_target": "T1, human PAR1 (thrombin receptor) on human platelets (human, UniProt P25116 42-425)", "T1 sequence (looked up)": "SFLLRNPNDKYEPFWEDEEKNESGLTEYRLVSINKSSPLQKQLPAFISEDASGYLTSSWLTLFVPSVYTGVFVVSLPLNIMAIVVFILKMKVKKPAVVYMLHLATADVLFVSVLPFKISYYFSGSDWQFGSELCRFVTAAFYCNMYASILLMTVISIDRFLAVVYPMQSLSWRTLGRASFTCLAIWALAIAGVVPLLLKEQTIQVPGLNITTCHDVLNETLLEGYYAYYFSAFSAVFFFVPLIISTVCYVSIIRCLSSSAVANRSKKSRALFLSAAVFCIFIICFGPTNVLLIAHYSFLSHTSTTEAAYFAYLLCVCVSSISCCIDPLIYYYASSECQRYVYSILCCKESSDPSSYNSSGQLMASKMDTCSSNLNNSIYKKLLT", "experiment": "cell-based or functional assay", "note": "The star is where a group is joined. Palmitoyl = CCCCCCCCCCCCCCCC(=O)*"}
{"binder": "B1", "values": [{"measurement": "right shift of thrombin-induced aggregation of human platelets", "value": 5, "unit": "fold"}]}
